Test results: the DeepSol protein solubility set

Assay: soluble on expression in E. coli; label from the status in PepcDB or PDB records

Sequence | soluble on expression in E. coli
MKMDTGALTFQQKIYWLVKQIPLGRVATYGQIAALCGWPRHGRYVGYALYRVAPNSDIPWHRVVNAQGKISYAPQRRGTDELQRWRLAAEGIIFTAGDRINLRRYQWQPPATVYQQLIWPEGAATDSAKALEHHHHHH | soluble
MAAVILESIFLKRSQQKKKTSPLNFKKRLFLLTVHKLSYYEYDFERGRRGSKKGSIDVEKITCVETVVPEKNPPPERQIPRRGEESSEMEQISIIERFPYPFQVVYDEGPLYVFSPTEELRKRWIHQLKNVIRYNSDLVQKYHPCFWIDGQYLCCSQTAKNAMGCQILENRNGSLKPGSSHRKTKKPLPPTPEEDQILKKPLPPEPAAAPVSTSELKKVVALYDYMPMNANDLQLRKGDEYFILEESNLPWWRARDKNGQEGYIPSNYVTEAEDSIEMYEWYSKHMTRSQAEQLLKQEGKEGGFIVRDSSKAGKYTVSVFAKSTGDPQGVIRHYVVCSTPQSQYYLAEKHLFSTIPELINYHQHNSAGLISRLKYPVSQQNKNAPSTAGLGYGSWEIDPKDLTFLKELGTGQFGVVKYGKWRGQYDVAIKMIKEGSMSEDEFIEEAKVMMNLSHEKLVQLYGVCTKQRPIFIITEYMANGCLLNYLREMRHRFQTQQLLEMCKDVCEAMEYLESKQFLHRDLAARNCLVNDQGVVKVSDFGLSRYVLDDEYTSSVGSKFPVRWSPPEVLMYSKFSSKSDIWAFGVLMWEIYSLGKMPYERFTNSETAEHIAQGLRLYRPHLASEKVYTIMYSCWHEKADERPTFKILLSNILDVMDEES | soluble
MALKLKLKMPSSSASNSPQPPPPESHSPEQPKLPKLKIKAPSKTPVSSTPDSSMALKRPQEEQSTGENPKKLKLSLSKTKENGRPKGLPRVRIKPTRIPGEGYDSEAPDLEDDPLIEQGIIIRFLNDSNLDFVHNAVDSGDLTGLNVKWVTKEKAIVNVNSILYSARLIDLPTVTEIFKTVDRKNVFKTLDICQILLVLHVVDPAKLNIDTDFEVPEEFLFNHPFYKYVKNNEIKKKRMVLKDGLLQPFQDVYRRFRPTKVDHRVILDIESKVDELIKLDNEADESHFELLDSKTAQQSRFGTSATPSAVNSPVAMRMEGPEVEPGRFSNVQDHENEEDDEEEDEEDYDDDDLQDDDMELHLEQELEKVLDGELSESEVTIPTSMAGILTNDVGNGISIMTNGEQSEDIDGDEQDDEEEEEEEEEDGDDEEEEEEEEEEENEEGDSESGKQHVKLLEEEIFELEKAVAHHQKNLSTASSKMLRMKFQNTYTSLKASLDSKKRDLAKLLDEQEQQQEQKQPKTTVDEKSQEAEHSVEAEAEIEAQVEADAEDGDEDEDIDQGDDMNQENNNNNGDSDIDEDNADDLDDLF | not soluble
MSDLTKLDWNHIRAFLKTAETGSLSAAARRLDLTQPTLSRQVAALEQDLGVMLFERIGRTLVLTDAGADLLEHTRAMGAAADRVALAASGQAQSIEGRVRITASDVMSAYVLPEALRRIRAQAPRLEIEVIAANDIRDLMRREADIAIRHVRPEQPDLIARLVREATAHFYAASGYLDRRGRPVTKDDLATHDFIAFGDVTEMLGHLTPLGLPLTRANFRLGSQSGVVAWDYVRQGFGIAPMDDGVAAATPGVERVLPQMEPLLFPVWLTAHRELHTSRRIRLVFDILAEYLTG | not soluble
MGSDKIHHHHHHMKEKIVLAPQKGPQEMFLATSADICIYGGAAGGGKTFGLLLEPLRYMNNPDYNATIFRRDYTQVTSPGGLWDSSRKIYRYVKGSRPLKTPKLHWTFKRGASVNFAHLGRDEDCDDWQGSQLTMIGFDELTHFSEYQFFYMLSRNRTDSGVKPYVRATCNPDADSWVAEFISWWINQETGYPIPERSGVIRWMVRLNEVVTWFDSREEAVQGAIENGVKPEQAETMPKSVTFIASTLHDNKILMKNDPGYLANLQAMTLVQRERLLHGNWKIKAAAGLMFKRVKVNMLEEIPPDVIKWARGWDLAATSEDEKGDPAYTAGVLIGKRRNGRYIVADVINRRLSSSDVREIIKQTCIADRAKYGRVATRLPQDPGQAGKDQAQSFMKLLAGFTVKCIQESGDKVTRAEPFSAQWLGLEGMDKGNVDVLIAPWNEEYFNECENFPQSKFKDMVDASSSAFTELESGATYSAPPKDSQLGKSSYWNK | not soluble
MAGEAGQPSEPLNLLAGMAAAPWDYDFFQALRRIECESPQLPRLGHSVRLADDPLRLGQKPDCTFAPSTLASVSQAGTAAVPRLDQFFFGLTGPNGPLPLHLTEYARERQRNVNDATFKRFMDVFHHRLLTLFYRAWAEARPEISHDRIDDDYWSARLAALSGRGMPSLRGREPLADTARYYYTGHLAAQTRYPDGLRVILAEYFEVPVAVEEYVGQWLELPERSRLGVDSTSLGMDVCLGTHVWDRQHKFRLRLGPLDLDQYQRFLPDGDHFVELAAWVAEYLGEELDWDVNLVLQRHEVPPLGLQGGGRLGFNTWLGDPGQDARDLLLARQYATARPHEHKEKEHE | not soluble
MQQVFKKPVSLKDVQTHFCPGCHHGTFHRLVAEAMDEFGVQKKTIGVASVGCSVFLYGYFDIDVVEAPHGRAPAVATGVKRARPDAFVFTYQGDGDLAAIGTSEIIHAANRGEDITVIFVNNTTYGMTGGQMAPTTLVGQRTSTSPYGRKNEKDGSPIRMAELLAQLEGVAFSARVAVNNPKNLMDAKRQIKKAFRYQAEGKGFSFIEALSSCPTNWGMDALAANERVGTEMCA | not soluble
MKKTFEKVYHLKLSIKGITPQIWRRIQVPENYTFLDLHKAIQAVMDWEDYHLHEFEMVNPKTGMLDKIGAEGDDFDAFGGPLVSEKKAKLSDYFTLENKEALYTYDFGDNWQVKVRLEKILPRKEGVEYPICTAGKRAAVPEDSGGVWGYEEMLEVLKDSEHEEYEDTVLWLGDDFDPEYFDPKDVSF | soluble
MGSDKIHHHHHHMYPFVDRKEELKALKERLTRENFELIVIYGRRRVGKTRLVLEAVRDLPHVYYLAVEGNNLRHFRETAERVFPEVRYSREDWEGTLHALKGKIIVIDEFPNLIKENPRVLSLFQRVIDLDLSNSNTKMILLGSSVSMMTEKVLSYKSPLYGRRTGSMKLKPMGFFSLRVFFPTASWEELVEIYGMTDGIPFYITQVKLPFWEWLEEELSSPVSFFRDEVDFLLKYEFSEVSTYKRILEAIALGKTTPKEIRDFTGLRHSDISPYLRNLIEADLIVREVPVTEKGTSKRGRYYIADNFLAFWFRFIFPNLSRIEEGTFSVEEIRDSYDHYLGLVFEKVARQFLVKLNKAGNLPFKFTKIGRWWHKNEEIDLVALNEREKRALFVEVKWKSLSGREARGILWDLERKSELVGLEGWEKHYGLVAKEIRNKNALKSEGWLVWDLGDFERLISPGEISYL | not soluble
MAHHHHHHMLFVDLLNGVNVNYKRKVPICKRPTRSAEYLSNQPLHANRNVEQTSSKNGEASITNHEDEKDENILQQYIYTLSHLTIFDVDRDKSTPLNIALLLKACLASHNYIKNVEIFTSNVKNKEICSFIYERRNDFDAFFKLHVMKYIDFFGNPQIVETLKSSVDNKEMYQRELEIFNQIDGETKLRKDLLEDILFECTRLNKIIQYSLAVNNFNLFSPTVLLKLFTYFKHYGVYYSIFLNNIKKVKYYYQTKDIREEDKRKIEKIVDHYLLTLDRFNHMYEAGHVTL | not soluble
MATNIGMMDSAYFVGRNEILTWINDRLHLNLSRVEEAASGAVQCQMLDMTFPGVVPMHKLVDLKISTDLLEKERDFYFSKLRDVEILCQTPELDDLPVNVSVEPIVVAVKKILYATDANESALEDAQEYLNQSLGVEDDEAEGNGEQLEEEKTQA | soluble
MILSDKDIIDYVTSKRIIIKPFNKDFVGPCSYDVTLGDEFIIYDDEVYDLSKELNYKRIKIKNSILVCPLNYNLTEEKINYFKEKYNVDYVVEGGVLGTTNEYIELPNDISAQYQGRSSLGRVFLTSHQTAGWIDAGFKGKITLQIVAFDKPVILYKNQRIGQLIFSKLLSPADVGYSERKTSKYAYQKSVMPSLIHLDNHKKD | soluble
MGSDKIHHHHHHMLINADFSCRAALAPEHYQWVQSPQNGVERVMLDRVGAEKARATSIVRYAPESNFPYHLHPGGEEILVLSGTFSADNSDYPAGWYLRNPPKSGHQPYSNVGAVIFVKLWQMTADETHHVAIDTKDAKNWHRQGNREVCHLFLDTSEQVSLQRIEAGEILFPETIARGAELLVIEGELIEDSMLDKGQSYKKGSWIRLPVDATSPIVAGANGATVYLKTGHLSRIIGIDVY | not soluble
MANFIIELSADESFNIVINDLKPIETYRVEMFLSDYYCINAPMRLAHDVLWKSTATFVSDTNGIINISQTPSCSGSYEGISTMGLFFNAKPLTNKRKKLPNSISKIPLLDHFFVGIKIMQGNTVIAERTFTRHYMSSQISHQDIYGKHFQGRLFYDKKAIKTPSIDYCER | not soluble
